According to the nanobody polyreactivity screen of Harvey et al. (2022):

Experiment: yeast display, Sf9 membrane polyspecificity reagent, FACS + sequencing; frameworks hold sequencing errors
Outline: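 Using colony PCR, genes from sorted yeast display clones were amplified, then sequenced on MiSeq at 2 × 250 and filtered by CDR length. The clones had been stained with 10% biotinylated, detergent-solubilized Sf9 membrane reagent for 1 hour at 4 °C and sorted by FACS into low and high (top ~1%) gates on anti-HA and streptavidin fluorescence. Polyreactivity labels come from the gate of origin.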

Row | Sequence | polyreactivity (PSR sort gate)
1 | QVQLVESGGGLVQAGGSLRLSCAASGFTYRPNAMGWYRQAPGKERELVASIRYSGGSTYYADSVKGRFTISRDNAKNTVYLQMNSLKPEDTAVYYCAAVLYSWMRLGSTYTYDYWGQGTQVTVSS | low polyreactivity
2 | QVQLVESGGGLVQAGGSLRLSCAASGFTYSTNAMGWYRQAPGTERELVAAISGSGGSTYYADSVKGRFTISRDNAKNTVYLQMNSLKPEDTAVYYCAARCPYYSWGRYEYYYWGQGTQVTLSS | high polyreactivity
3 | QVQLVESGGGLVQAGGSLRLSCAASGFYAMGWYIQAPGKERELVAAIRYRGGSTYYADSVKGRFTFSRDNAKNTVDLQMNSLKPEDTAVYYCAASTGPDRQFDSWGQGTQVTVSS | low polyreactivity
4 | QVQLVESGGGLVQAGGSLRLSCAASGGIFADYAMGWYRQAPGKERELVADISARGGSTYNADSVKGRFTISRDNAKNTVYLQMNSLKPEDTAVYYCATDGPGYPPTLRYDYWGQGTQVTVSS | low polyreactivity
5 | QVQLVESGGGLVQAGGSLRLSCAASGGIFAYMGWYRQAPGKERELVASITSSGGSTYYADSVKGRFTISRDNAKNTVYLQMNSLKPEDTAVYYCAADPDFYKSVQYDYWGQGTQVTVSS | low polyreactivity
6 | QVQLVESGGGLVQAGGSLRLSCAASGGIFAYNAMGWYRQAPGKERELVATISYSGGSTYYADSVKGRFTISRDNAKNTVYLQMNSLKPEDTAVYYCATRLYGWRGRYNYWGQGTQVTVSS | high polyreactivity
7 | QVQLVESGGGLVQAGGSLRLSCAASGGIFDGNAMGWYRQAPGKERELVAAISSGGITKYADSEKGRFTISRDNAKNTVYLQMNSLKPEDTAVYYCAASWYRYRFIRYDYWGQGTQVTVSS | high polyreactivity
8 | QVQLVESGGGLVQAGGSLRLSCAASGGIFDINAMGWYRQAPGKERELVAAISWGGGSTYYADSVKGRFTISRDNAKNTVYLQMNSLKPEDTAVYYCAAESVSIQPTPDEDYWGQGTQVTVSS | high polyreactivity
9 | QVQLVESGGGLVQAGGSLRLSCAASGGIFDRYAMGWYRQAPGKERELVAAITGSGGRTYYADSVKGRFTISRDKAKNSVYLQMTSLKPVDPAVYYCARAFGQRRYDYWGHGTQVTVSS | high polyreactivity
10 | QVQLVESGGGLVQAGGSLRLSCAASGGIFDRYAMGWYRQAPGKERELVAGITWSGGRTYYADSVKGRFTISRDNAKNTVYLQMNSLKPEDTAVYYCAASLYTWTYQPVYYRDGYWGQGTQVTVSS | low polyreactivity
11 | QVQLVESGGGLVQAGGSLRLSCAASGGIFEANVMGWYRQAPGKERELVAAITSGGSTNYADSVKGRFTISRDNAKNTVYLQMNSLKPEDTAVYYCAADRPDGWVDYWGQGTQVTVSS | low polyreactivity
12 | QVQLVESGGGLVQAGGSLRLSCAASGGIFFSYAMGWYRQAPGKERELVAAIRTNGGTTYYADSVKGRFTISRDNAKNTVYLQMNSLKPEDTAVYYCAALPGGYYDRGEYDYWGQGTQVSVSS | low polyreactivity
13 | QVQLVESGGGLVQAGGSLRLSCAASGGIFGLYTMGWYRQAPGKERELVAAISKTGGSTYYADSVKGRFTISRDNAKNTVYLQMNSLKPEDTAVYYCAKAGRYANLPYGYWGQGTQVTVSS | high polyreactivity
14 | QVQLVESGGGLVQAGGSLRLSCAASGGIFGRNAMGWYRQAPGKEMELVAAISSSGGTTYYADSVKGRFTISRDYAKNTVYLQMNSMKPEDTAVYYCNAAYYWRSFHDDYFGQGTQVTVSS | high polyreactivity
15 | QVQLVESGGGLVQAGGSLRLSCAASGGIFGSYAMGWYRQAPGKERELVAAISGGSTYYADSVKGRFTISRDNAKNTVYLQMTSLKPEDTAVYYCAAGWSVWYQDFDYWGQGTQVTVSS | high polyreactivity
16 | QVQLVESGGGLVQAGGSLRLSCAASGGIFGSYAMGWYRQAPGKERELVAAISWRGGSTYYADSVKGRFTISRDNAKNTVYLQMNSLKPEDTAVYYCAARYRWGYSTSYSYRFDYWGQGTQVTVSS | high polyreactivity
17 | QVQLVESGGGLVQAGGSLRLSCAASGGIFGSYTMGWYRQAPGKERELVAGISDSGGSTYYADSVKGRFTISRDNAKNIVYLQMNSLKPEDTAVYYCAAVEAYGQEYDYWGQGTQVTVSS | low polyreactivity
18 | QVQLVESGGGLVQAGGSLRLSCAASGGIFGYYAMGWYRQAPGKERELVAAINYSGGSTYYADSVKGRFTISRDNAKNTVYLQMNSLKPEDTAVYYCNAVVRDYTFRYYYWGQGTQVTVSS | low polyreactivity
19 | QVQLVESGGGLVQAGGSLRLSCAASGGIFGYYAMGWYRQAPGKERELVAAISSSGGSTYYADSVKGRFTISRDNAKNTVYLQMNSLKPEDTAVYYCAAYRKVGGFSRGDYWGQGTQVTVSS | high polyreactivity
20 | QVQLVESGGGLVQAGGSLRLSCAASGGIFGYYTMGWYRQAPGKERELVAAITWRGSTYYADSVKGRFTISRDNAKNTVYLQMNSLKPEDTAVYYCAARYYSPYGYCGQGTQVTVSS | high polyreactivity
21 | QVQLVESGGGLVQAGGSLRLSCAASGGIFHYYAMGWYRQAPGKERELVAAISWNTGSTYYADSVKGRFTISRDNAKNTVYLQMNSLKPVDTAVYYCAASYRSPWLRYDYWGQGTQVTVSS | high polyreactivity

Row | Sequence | polyreactivity (PSR sort gate)
22 | QVQLVESGGGLVQAGGSLRLSCAASGGIFIDYALGWYRQAPGKERELVAAITYSGTSTSYADSVKGRFTISRDNAKITVYLQMNSLKPEDTAVYYCNTYPVLFYVGLDYWGQGTQVTVSS | low polyreactivity
23 | QVQLVESGGGLVQAGGSLRLSCAASGGIFIFYAMGWYRQAPGKERELVAAISNVSSTNYADSVKGRFTISRDNAQNTVYLQMNSLKPEDTAVYYCNAVCVPSEYYSWGQGSQVTVSS | low polyreactivity
24 | QVQLVESGGGLVQAGGSLRLSCAASGGIFKRNTMGWYRQAPGKERELGAGISWTGGRTYYADSVKGRFTISRDTAKNTVYLQMNSLKPEDTAVYYCAAKPLQGVRRVEYWGQGTQVTVSS | high polyreactivity
25 | QVQLVESGGGLVQAGGSLRLSCAASGGIFKSNTMGWYRQAPGKERELFAAITSGGSTNYADSVKGRFTISRDNAKNTVYLQMNSLKPEDTAVYYCNTDDRYYTPSRAVFQYDYWGQGTQVTVSS | low polyreactivity
26 | QVQLVESGGGLVQAGGSLRLSCAASGGIFLSNAMGWYRQAPGKERELVAAISRSGGSTYYADSVKWRFTISRDNAKNTVYLQMYSLKPEDTAVYYCAARWTRNYGMNYWGQGTQVTVSS | high polyreactivity
27 | QVQLVESGGGLVQAGGSLRLSCAASGGIFLVNDMGWYRQAPGKERELFAAITSGGGTYYADSVKGRFTISRDNAKNTVYLQMNSLKPEDTAVYYCARDTYRQIVSNESYGYWGQGTQVTVSS | low polyreactivity
28 | QVQLVESGGGLVQAGGSLRLSCAASGGIFNYYAMGWYRQAPGKERELVAAISASGGSTYYADSVKGRFTISRDNAKNTVYLQMNSLKQEDTAVYYCAAKYPQKTPVNSYGNSFYYWGQGTQVTVSS | low polyreactivity
29 | QVQLVESGGGLVQAGGSLRLSCAASGGIFPSYAMGWYRQAPGKERELVAAITRGASTYADSVKGRFTISRDNAKNTVYLQMNSLKPEDTAVYYCAADTKRRSIRYDYWGQGTQVTVSS | high polyreactivity
30 | QVQLVESGGGLVQAGGSLRLSCAASGGIFPYYAMGLYRQAPGKERELVADISSGGSTYYEDSVKGRFTISRDNAKNTVYLQMNSLKPEDTAVYYCAAEDTLAGSVARFGEYDYWGQGTQVTVSS | low polyreactivity
31 | QVQLVESGGGLVQAGGSLRLSCAASGGIFPYYAMGWYSQAPGKEMELVAGISQNDGRTYYADSVKGRFTISRDNAKNTVYLQMNSLKPEDTAVYYCATVYWYPRYGYWGQGTQVTVSS | low polyreactivity
32 | QVQLVESGGGLVQAGGSLRLSCAASGGIFQENAMGWYRPAPGKERELVATITRSTGSTYYADSVKGRFTISRDNAKNTVYLQMNSLKPEDTAVYYCAARRRSQYYRYAYKYDYWGQGTQVTVSS | high polyreactivity
33 | QVQLVESGGGLVQAGGSLRLSCAASGGIFQENAMGWYRQAPGKERELVATITRSTGSTYYADSVKGRFTISRDNAKNTVYLQMNSLKPEDTAVYYCAARRRSQYYRYAYKYDYWGQGTQVTVSS | high polyreactivity
34 | QVQLVESGGGLVQAGGSLRLSCAASGGIFQGNVMGWYRQAPGKERELVASIRRGGSTNYADSVKGRFTISRDNAKNTVYLQMNSLKPEDTAVYYCSARKWVGYHVWPLREYNYWGQGTQVTVSS | low polyreactivity
35 | QVQLVESGGGLVQAGGSLRLSCAASGGIFRFNAMGWYRQAPGKERELVAGISSTYYADSVKGRFTISRDNAKNTVYLQMNSLKPEDTAVYYCAAAGPEEHGYTYPGNNQMEYWGQGTQVTVSS | low polyreactivity
36 | QVQLVESGGGLVQAGGSLRLSCAASGGIFRGYAMGCYRQAPGKERELVATITFSGTSTYYADSVKGRFTISRDNAKNTVYLQMNSLKPEDTAVYYCNADWWFKYDYWGQGTQVTVSS | low polyreactivity
37 | QVQLVESGGGLVQAGGSLRLSCAASGGIFRGYAMGWYRQAPGKERELVATITFSGTSTNYADSVKGRFTISRDNAKNTVYFQMNRLKPEDTAVYYFAAGPVFGGGGYDYWGKGTQVTVSS | low polyreactivity
38 | QVQLVESGGGLVQAGGSLRLSCAASGGIFRYYAMGWSRQAPGKEMELVAAITRGGRTSYADSVKGRFTISRDNAKNSVYLQMNSLKPEDTAVYYCNAKRPYQEHNSYGYWGQGTLVTVSS | high polyreactivity
39 | QVQLVESGGGLVQAGGSLRLSCAASGGIFSRYAIGWYRQAPGKEREFVAAISFSGASTYYADSVKGRFTISRDNAKNTVYLQMNSLKPEDTAVYYCAADRVWPYYQYDYWGQGTQVTVSS | low polyreactivity
40 | QVQLVESGGGLVQAGGSLRLSCAASGGIFSSYAMGWYRPAPGKERELVAAISSSSGSTYYADSVKGRFTISRDNAKNTVYLQMNSLKPEDTGVYYCAADSGHPDWYYYCGQGTQVTVSS | high polyreactivity
41 | QVQLVESGGGLVQAGGSLRLSCAASGGIFSTNGMGWYRQAPGKERELVATISYGGGSTSYADSVKGRFTISRDNAKNTVYLHMNSLKPEDTAVYYCAADSFGYNSWYNYDYWGQGSQVTVSS | low polyreactivity
